The results in this text go back to US20070298997A1, “Compounds useful in treating diabetic microvascular complications and age-related macular degeneration” (priority 2003, published 2007).

In data set [1] the test system is primary human mesangial cells (HMC). In words: High glucose-induced fibronectin secretion in HMC (ELISA). The class given is cell-based. As to conditions: 30 mM glucose, 25 to 1600 nM, 3 days. How it is done: FIG. 11 illustrates blockage of high glucose-induced fibronectin secretion by kallistatin in human mesangial cells (HMC). Primary HMC was treated with high glucose (30 mM) in the presence of different concentrations of kallistatin as indicated for 3 days. Control cells were cultured in 5 mM glucose. To overcome the osmolarity difference, mannitol control cells were treated with 25 mM mannitol+5 mM glucose under the same conditions. Fibronectin secreted into the culture medium was measured by ELISA (mean±SD, n=3).
Cultured primary human mesangial cells (HMC) were treated with 30 mM glucose in the absence or presence of different concentrations of kallistatin (25-1600 nM) for 3 days. Cells cultured in 5 mM glucose were used as a control. To exclude the possible effect of osmolarity from high glucose, an osmolarity control was also included which was treated with 5 mM glucose and 25 mM mannitol. After the treatments for 3 days, secretion of fibronectin into the culture medium was measured.
(An ELISA detects its analyte on a solid surface through an enzyme-linked reagent.)

The test system of a further data set is PEDF. In words: PEDF secretion in HMC under high glucose (ELISA). Conditions: 30 mM glucose, 3 days. The format is cell-based, human. How it is done: FIG. 13 illustrates prevention of the high glucose-induced decrease of PEDF in HMC by kallistatin. HMC were treated with high glucose (30 mM) in the presence of different concentrations of kallistatin for 3 days. Control cells were treated with 5 mM glucose and 5 mM glucose+25 mM mannitol as an osmolarity control. PEDF secretion into the medium was measured by ELISA (mean±SD, n=3).
Kallistatin up-regulates endogenous anti-inflammatory factors in the kidney. Pigment epithelium-derived factor (PEDF) is an anti-angiogenic factor. Recently, the inventor has shown that PEDF also has anti-inflammatory activities and has a protective effect against DN (see U.S. Ser. No. 10/963,115, filed Oct. 12, 2004, the contents of which are hereby expressly incorporated herein by reference). Decreased PEDF levels in diabetic kidney may contribute to the development of DN. The effect of kallistatin on PEDF expression has been determined in kidney cells. HMC were treated with high glucose (30 mM glucose) with different concentrations of kallistatin for 3 days. The PEDF levels in the cultured medium were measured by ELISA specific for PEDF.

A further data set relates to VEGF. In words: VEGF in RCEC cell lysate by Western blot. The class given is cell-based, bovine. As to conditions: RCEC under hypoxia, 24 h, 40-640 nM. Here is the method:
FIG. 9 illustrates down-regulation of VEGF expression by kallistatin. As increased VEGF levels in the retina and vitreous play a key role in the development of retinal neovascularization, the effect of kallistatin on the expression of VEGF in cultured RCEC was determined. VEGF secreted into the conditioned medium was measured by VEGF ELISA and normalized by total protein concentration in the medium.
Measurement of VEGF in the conditioned medium of RCEC by ELISA: RCEC were seeded in T75 flasks in endothelial cell growth medium and cultured in a CO2 incubator to reach 60-70% confluency. The cells were washed 3 times with PBS and the growth medium replaced by a serum-free medium containing bFGF (GIBCO-BRL, Gaithersburg, Md.). Kallistatin was added to the medium to various concentrations and incubated with the cells for 24 h under normoxia or hypoxia (in a chamber that was perfused with a mixture of 95% N2+5% CO2). The conditioned medium was harvested for VEGF ELISA and the cells were used for Western blot analysis. The conditioned medium was centrifuged and the protein concentration in the supernatant was measured with BioRad protein assay. VEGF concentration was measured using a VEGF ELISA kit (R& D systems, Minneapolis, Minn.) and normalized by total protein concentration in the medium. […]
(In western blotting, separated proteins are transferred to a membrane and probed.)

For data set [2], the system named is retinal neovascularization. The format is in vivo, Brown Norway rats. As to conditions: for pre-retinal vascular cells: P<0.01. How it is done: Retinal neovascularization was induced in Brown Norway rats by exposure of newborn rats to hyperoxia as described previously (Gao et al., 2001). Kallistatin was injected intravitreally at P12, and the control eyes received the same volume of PBS. Rats were kept under normoxia for another 5 days, and retinal neovascularization was examined by fluorescein angiography (P17). The control eyes (PBS-injected) developed typical retinal neo-vascularization, including neovascular tufts, microaneurysms, enlarged non-perfusion regions and vascular leakage (FIG. 5a).
(§1) Induction of retinal neovascularization and intravitreal injection of kallistatin: Retinal neovascularization was induced as described by Smith et al. (Smith et al., 1994) with some modifications. Briefly, newborn pigmented Brown Norway rats at postnatal day 7 (P7) were exposed to hyperoxia (75% O2) for 5 days and then normoxia. Animals were anesthetized, and kallistatin was injected into the vitreous of the right eye through the pars plana using a glass capillary. The left eye received the same volume of PBS as the control. After injection, the animals were kept in normoxia for another 5 days for further analyses.
Retinal angiography with high molecular weight fluorescein and quantification of neovascularization: Retinal angiography was as described by Smith et al. (Smith et al., 1994). Briefly, rats were anesthetized and perfused with fluorescein via intra-ventricle injection of 50 mg/ml of high molecular weight (2×10^6) fluorescein isothiocyanate-dextran (Sigma, St. Louis, Mo.). The animals were immediately sacrificed, and the eyes were enucleated and fixed in 4% paraformaldehyde for 10 min. The retina was dissected free of the lens and vitreous and incubated in 4% paraformaldehyde for 3 h. The retina was cut and flat-mounted on a gelatin-coated slide. The vasculature was then examined under a fluorescent microscope (Axioplan2 Imaging, Zeiss).
Retinal neovascularization was quantified by counting pre-retinal vascular cells as previously described (Zhang et al., 2001). The average number of pre-retinal vascular nuclei was compared to the PBS control group by Student's t test.

The subject of a further data set is retina. In words: Retinal toxicity after intravitreal injection (histology of retinal sections). The class given is in vivo, Brown Norway rats. How it is done: as §1

“Also recorded” adds a separate entry of the source. Where two headings read alike, the source gives them in different places.

B1: kallistatin: Recombinant His-tagged rat kallistatin (serpin, SEQ ID NO:1) expressed in E. coli and affinity-purified (protein, listed as Homo sapiens)
chain: DGILGRDTLPHEDQGKGRQLHSLTLASINTDFTLSLYKKLALRNPDKNVVFSPLSISAALAILSLGAKDSTMEEILEVLKFNLTEITEEEIHHQGFGHLLQRLSQPEDQAEINTGSALFIDKEQPILSEFQEKTRALYQAEAFVADFKQCNEAKKFINDYVSNQTQGKIAELFSELDERTSMVLVNYLLFKGKWKVPFNPNDTFESEFYLDEKRSVKVPMMKIKDLTTPYIRDEELSCSVLELKYTGNASALFILPDQGKMQQVESSLQPETLKKWKDSLRPRIISELRMPKFSISTDYNLEEVLPELGIRKIFSQQADLSRITGTKNLHVSQVVHKAVLDVDETGTEGAAATAVTAALKSLPQTIPPLNFNRPFMLVITDNNGQSVFFMGKVTNPM
modifications: His tag
Regarding B1, in data set [1], the “fibronectin production (secretion into medium)” value is “concentration-dependent decrease of fibronectin production; also recorded: fibronectin was significantly lower than the high glucose alone”. For the same molecule, the figures for the “PEDF levels in the cultured medium” value in the data set on PEDF and in the data set on PEDF (listed as Kallistatin) were “prevents the decrease of PEDF under the high glucose insult” and “reversed the changes of PEDF under high glucose conditions”, respectively. Also, in the data set with VEGF, the “VEGF levels in the cell lysate” value is given as “reduced VEGF levels in the cell lysate of RCEC in a concentration-dependent manner”. Further, the pre-retinal vascular cells result was “significantly decreased pre-retinal vascular cells” in data set [2] (OIR rats, 12.5 μg per eye intravitreal) and “significantly decreased pre-retinal vascular cells” in data set [2] (OIR rats, 25 μg per eye intravitreal). For the same molecule, in data set [2] (OIR rats, intravitreal injection at P12, examined P17), the “retinal vasculature by fluorescein angiography” value is reported as “apparent improvement in retinal vasculature”. The “retinal vasculature by fluorescein angiography, normal rats” value in data set [2] (rat, in vivo) is recorded as “did not result in any apparent difference in retinal vasculature”. Also, the “inflammatory response or toxicity to retinal tissues and normal vasculature” value in the data set with retina (intravitreal injection) was “does not cause any detectable inflammatory response or toxicity”. The “histological evidence of retinal toxicity” value in the data set with retina (retinal sections after intravitreal injection) is given as “No apparent histological evidence of retinal toxicity”.
